Results: publication PMC10938909

Key:
[1] = target: secretory chicken FcRY (lacking the membrane-spanning domain, residues 36-1396) (chicken)
[2] = target: secretory chicken FcRY (lacking the membrane-spanning domain, residues 36-1396) (chicken); assay: BLI; BLItz, advanced kinetics; chicken FcRY (400 nM) immobilised on Ni-NTA sensor via His tag; Igs 50-600 nM; pH 5.5 (PBS, 0.05% Tween 20, 20 mM MES, 0.5% BSA); association 120 s, dissociation 120 s; 1:1 fit
[3] = target: secretory chicken FcRY (lacking the membrane-spanning domain, residues 36-1396); assay: competitive binding assay against DIG-IgY on FcRY-immobilized plate, ELISA; conditions: pH 6.0, DIG-IgY tracer (m10) 27.8 nM, value is DIG-IgY still bound (lower = stronger competition), no-competitor level est. 0.17 nM, n = 3, read off a plot
[4] = target: secretory chicken FcRY (lacking the membrane-spanning domain, residues 36-1396) (chicken); assay: ELISA; graded pH (pH 4.0-7.4), IgY-Fc mutants at 55.6 nM on FcRY held on copper-coated plates; the acidic points (strongest at pH 5.5, pH 5.0-6.0)
[5] = target: native quail IgY (qIgY); assay: bio-layer interferometry (BLItz, advanced kinetics mode); conditions: pH 5.5; PBS (composition not stated); PBS with 20 mM MES at pH 5.5 or 20 mM HEPES at pH 7.4
[6] = target: recombinant quail IgY-Fc G365A G365A; assay: as above; conditions: pH 5.5; PBS (composition not stated); PBS with 20 mM MES at pH 5.5 or 20 mM HEPES at pH 7.4
[7] = target: recombinant quail IgY-Fc Y363A Y363A; assay: as above; conditions: pH 5.5; PBS (composition not stated); PBS with 20 mM MES at pH 5.5 or 20 mM HEPES at pH 7.4
[8] = target: recombinant quail IgY-Fc wild type (WT); assay: as above; conditions: pH 5.5; PBS (composition not stated); PBS with 20 mM MES at pH 5.5 or 20 mM HEPES at pH 7.4
[9] = target: secretory chicken FcRY (lacking the membrane-spanning domain, residues 36-1396) (chicken); remark: listed apart in the source
[10] = competitor 55.6 nM, parent: est. 0.080
[11] = competitor 111.1 nM, parent: est. 0.060
[12] = competitor 277.8 nM, parent: est. 0.042

Substance	Kd [2] [nM]	koff [2] [s⁻¹]	kon [2] [M⁻¹ s⁻¹]	response [3, 10] [nM]	response [3, 11] [nM]	response [3, 12] [nM]	other results
quail IgY-Fc mutant G365A (domain or fragment)	197	0.0082	42000				uptake of the intravenously injected DIG-labeled IgY-Fc mutant (20 ug/100 g BW) into quail egg yolks, eggs of 6 d, relative to WT [1]: 2 fold
recombinant quail wild-type IgY-Fc G365S				0.086	0.066	0.05	
quail IgY-Fc mutant Y363A (domain or fragment)	65	0.0015	23000				amount bound at pH 5.0-6.0 relative to WT and G365A [4]: 2 fold
recombinant quail wild-type IgY-Fc G365D				0.15	0.13	0.14	
secretory FcRY (IgY-Fc receptor, PLA2R homologue) ectodomain							ka [5]: 35000 M⁻¹ s⁻¹; kd [5]: 0.0095 s⁻¹; ka [6]: 42000 M⁻¹ s⁻¹; kd [6]: 0.0082 s⁻¹; ka [7]: 23000 M⁻¹ s⁻¹; kd [7]: 0.0015 s⁻¹; ka [8]: 19000 M⁻¹ s⁻¹; kd [8]: 0.0065 s⁻¹
native quail IgY (ligand)	275	0.0095	35000				
recombinant quail wild-type IgY-Fc (domain or fragment)	333	0.0065	19000				uptake of DIG-labeled WT tracer into egg yolks of laying quail co-injected with the FcRY-neutralizing rabbit antibody Strong Ab (1 mg/100 g BW), relative to control rabbit IgG [9]: 20%; uptake of DIG-labeled WT tracer into egg yolks of laying quail co-injected with the FcRY-neutralizing rabbit antibody Weak Ab (1 mg/100 g BW), relative to control [9]: 60%
recombinant quail wild-type IgY-Fc N408A				0.11	0.1	0.086	
